Test results as given in publication PMC9299292, “The nuclear egress complex of Epstein-Barr virus buds membranes through an oligomerization-driven mechanism” (PLoS Pathogens, 2022).

Legend:
[1] = target: EBV NEC215-N31S_(BFLF2)/L262F_(BFLF2)-His8 (Epstein-Barr virus (strain B95-8)) (UniProt P03185)
[2] = target: EBV NEC215-N31S_(BFLF2)/F267W_(BFLF2)-His8 (Epstein-Barr virus (strain B95-8)) (UniProt P03185)
[3] = target: EBV NEC215-N121Q_(BFRF1)/N31S_(BFLF2)-His8 (Epstein-Barr virus (strain B95-8)) (UniProt P03185)
[4] = target: EBV NEC215-Q43A_(BFRF1)/N31S_(BFLF2)-His8 (Epstein-Barr virus (strain B95-8)) (UniProt P03185)
[5] = target: the molecule itself; assay: crystal structure; EBV NEC195Δ65; hanging drops at 20°C, protein in 20 mM HEPES pH 8.0, 100 mM NaCl, 0.5 mM TCEP over 25% PEG 3350, 0.1 M Tris-HCl pH 8.5, 0.2 M Li2SO4; space group P4(3)2(1)2, five heterodimers in the asymmetric unit; 3.97 Å

**Q.** With “EBV NEC215-N31S_(BFLF2)/L262F_(BFLF2)-His8 (from UniProt P03185 1-215; P0CK47 1-318) (complex)” as the molecule, how does the in-vitro GUV budding assay (intraluminal vesicles, 1.5 uM NEC, Ni-chelating lipids), against WT EBV NEC215-N31S (BFLF2)-His8 (% of the WT EBV NEC) [1] read?
**A.** < 25

**Q.** How did the in-vitro GUV budding assay (intraluminal vesicles, 1.5 uM NEC, Ni-chelating lipids), against WT EBV NEC215-N31S (BFLF2)-His8 (% of the WT EBV NEC) [2] turn out when “EBV NEC215-N31S_(BFLF2)/F267W_(BFLF2)-His8 (from UniProt P03185 1-215; P0CK47 1-318) (complex)” was run?
**A.** < 25

**Q.** For “EBV NEC215-N121Q_(BFRF1)/N31S_(BFLF2)-His8 (from UniProt P03185 1-215; P0CK47 1-318) (complex)”, which in-vitro GUV budding assay (intraluminal vesicles, 1.5 uM NEC, Ni-chelating lipids), against WT EBV NEC215-N31S (BFLF2)-His8 [3] is on record?
**A.** 2 fold

**Q.** “EBV NEC215-Q43A_(BFRF1)/N31S_(BFLF2)-His8 (from UniProt P03185 1-215; P0CK47 1-318) (complex)” was tested. Which in-vitro GUV budding assay (intraluminal vesicles, 1.5 uM NEC, Ni-chelating lipids), against WT EBV NEC215-N31S (BFLF2)-His8 (% of the WT EBV NEC) [4] did it give?
**A.** < 25

B1: EBV NEC195Δ65 (complex)
chain 1: MASPEERLLDELNNVIVSFLCDSGSLEVERCSGAHVFSRGSSQPLCTVKLRHGQIYHLEFVYKFLAFKLKNCNYPSSPVFVISNNGLATTLRCFLHEPSGLRSGQSGPCLGLSTDVDLPKNSIIMLGQDDFIKFKSPLVFPAELDLLKSMVVCRAYITEHRTTMQFLVFQAANAQKASRVMDMISDMSQQLSRSG
chain 2: RSICSRHTRHGVDRSHFSLRDFFRGISANFELGKDFLREMNTPIHVSEAVFLPLSLCTLSPGRCLRLSPFGHSLTLGSHCEICINRSQVHVPQEFSSTQLSFFNNVHKIIPNKTFYVSLLSSSPSAVKAGLSQPSLLYAYLVTGHFCGTICPIFSTNGKGRLIMHLLLQGTSLHIPETCLKLLCENIGPTYELAVDLVGDAFCIKVSPRDTVYEKAVNVDEDAIYEAIKDLECGDELRLQIINYTQLILENKQ
notes: BFRF1 of Epstein-Barr virus strain B95-8, residues 1-195; BFLF2 of Epstein-Barr virus strain B95-8, residues 66-318; Heterodimer of m1 and m2; used for the NEC/NEC dimers seen in the crystal; also called nuclear egress complex; NEC1-5 (copies in the crystal); source: E. coli Rosetta (DE3), co-expressed, purified (Ni-NTA, glutathione Sepharose, S75 size exclusion); not shown: GST, …
**Q.** Does B1 bind [5]?
**A.** binds
